In general, stoichiometry N refers to the number of molecules, sites or subunits per partner or assembly.

Data set [1] has as its system T1, AnLexA (Anabaena sp. strain PCC 7120), ORF:0695c96d.
T1 sequence: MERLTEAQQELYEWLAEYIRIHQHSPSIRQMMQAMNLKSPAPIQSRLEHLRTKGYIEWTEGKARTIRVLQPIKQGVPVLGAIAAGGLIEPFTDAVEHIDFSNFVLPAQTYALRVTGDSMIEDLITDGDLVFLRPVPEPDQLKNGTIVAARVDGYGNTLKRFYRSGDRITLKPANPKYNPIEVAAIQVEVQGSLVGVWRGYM
Kind of data set: EMSA. Particulars: 20 mM Tris-Cl pH 7.5, 1 mM EDTA, 20 ul, RT 30 min; 10% native PAGE in 0.5x TBE. In general terms: In EMSA bound probe runs differently from free probe, usually more slowly.

Data set [2] concerns T2, AzuR (Anabaena sp. strain PCC 7120), ORF:06435f25.
T2 sequence: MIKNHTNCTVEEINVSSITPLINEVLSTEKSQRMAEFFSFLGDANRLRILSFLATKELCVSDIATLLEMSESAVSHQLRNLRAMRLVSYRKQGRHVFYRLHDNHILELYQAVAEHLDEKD
As to the kind of experiment: EMSA. Conditions: 20 mM Tris-Cl pH 7.5, 1 mM EDTA, 20 ul, RT 30 min; 10% native PAGE in 0.5x TBE.

The target in data set [3] is AzuR (Alr0831) (Anabaena sp. strain PCC 7120). Kind of data set: cross-linking; purified AzuR (5 ug) with 10 mM glutaraldehyde, room temperature, 10-15 min, 10 mM Tris pH 7.5; cracking buffer without DTT; 15% SDS-PAGE, Coomassie.
Data set [4] has the same target. As to the kind of experiment: SEC; Superdex 75, 20 mM Tris, 100 mM NaCl, pH 7.5, 25 °C, 0.5 ml/min; calibrated with gel filtration markers.

Regarding “AAACGTATTATATAACCTAATTGTTACATTTTATTAAGCAATACTTGAACATCTGTTCAGGTATTGTAGTGTAATCACAAGTGAAAACGGAGGAAATAAT (double strand) [PnmtA (100 bp upstream of nmtA ORF)]”, the binding entry is listed as “no binding” in data set [1] and “binds” in data set [2].
For AzuR (Alr0831) (natural protein), the stoichiometry N in data set [3] and in data set [4] was 2 throughout.

For the origin of these results see article PMC8790569.
